Reference: paper PMC12282945
Where two headings read alike, the source gives them in different places.

How the values were obtained:
Assay in all cases: EMSA
[1] = molecular target: T1, A35-n-Aca13
T1 chain: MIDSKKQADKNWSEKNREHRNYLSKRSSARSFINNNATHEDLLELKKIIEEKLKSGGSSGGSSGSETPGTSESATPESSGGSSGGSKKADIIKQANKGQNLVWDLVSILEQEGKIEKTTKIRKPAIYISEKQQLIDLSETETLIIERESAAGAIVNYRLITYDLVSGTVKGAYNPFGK

[2] = molecular target: T2, A35-c-Aca13
T2 chain: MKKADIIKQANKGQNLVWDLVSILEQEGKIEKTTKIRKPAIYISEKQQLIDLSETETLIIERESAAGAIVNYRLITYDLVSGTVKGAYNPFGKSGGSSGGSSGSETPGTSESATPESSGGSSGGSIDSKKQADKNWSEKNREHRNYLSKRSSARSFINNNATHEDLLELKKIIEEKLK

[3] = molecular target: T3, AcrIIA32 (Acr-Aca13 fusion) (Streptococcus uberis NZ01)
T3 chain: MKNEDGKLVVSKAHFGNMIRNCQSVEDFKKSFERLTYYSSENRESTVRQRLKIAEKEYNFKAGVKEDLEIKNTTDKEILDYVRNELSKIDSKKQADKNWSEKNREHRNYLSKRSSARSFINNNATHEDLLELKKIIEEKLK

[4] = molecular target: T4, A32CTD (Aca13) (Streptococcus uberis NZ01)
T4 chain: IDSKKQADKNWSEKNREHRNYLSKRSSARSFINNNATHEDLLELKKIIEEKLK

[5] = molecular target: T3, AcrIIA32 (Acr-Aca13 fusion)
[6] = molecular target: T4, A32CTD (Aca13)
[7] = molecular target: T5, Aca11 (Streptococcus sp. F0441)
T5 chain: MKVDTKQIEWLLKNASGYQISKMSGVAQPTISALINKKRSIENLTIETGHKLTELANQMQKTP

[8] = molecular target: T5, Aca11

B1: Aca13-s1 WT probe (Aca13 probe) (dsDNA)
DNA 1: AGTTGATAAAAAGTGTTGACTTTTTAACGTACATGTACTATAATATAATCATAAAGAT
DNA 2: ATCTTTATGATTATATTATAGTACATGTACGTTAAAAAGTCAACACTTTTTATCAACT
Question: Does B1 bind [1]?
Answer: Result: binds

Question: Does B1 bind [2]?
Answer: Result: binds

Question: Does B1 bind [3]?
Answer: Result: binds

Question: Does B1 bind [4]?
Answer: Result: binds

B2: Aca13-s1 scIR1 probe (dsDNA)
DNA 1: AGTTGATCCCCCTAGTTGACTTTTTAACGTACATGTACTATAATATAATCATAAAGAT
DNA 2: ATCTTTATGATTATATTATAGTACATGTACGTTAAAAAGTCAACTAGGGGGATCAACT
Question: Does B2 bind [3]?
Answer: Result: binds

Question: Does B2 bind [4]?
Answer: Result: binds

B3: Aca13-s1 scIR2 probe (dsDNA)
DNA 1: AGTTGATAAAAAGTGTTGACTTTTTAACGTACAGAGCTGTGCATATAATCATAAAGAT
DNA 2: ATCTTTATGATTATATGCACAGCTCTGTACGTTAAAAAGTCAACACTTTTTATCAACT
Question: Does B3 bind [5]?
Answer: Result: no binding

Question: Does B3 bind [6]?
Answer: Result: no binding

B4: Aca11-s1 IR WT probe (dsDNA)
DNA 1: GTGTTGACAGTATATAACAAATGTTATATACTATACTTGTAAGATAAATAAAACAA
DNA 2: TTGTTTTATTTATCTTACAAGTATAGTATATAACATTTGTTATATACTGTCAACAC
Question: Does B4 bind [7]?
Answer: Result: binds

B5: Aca11-s1 scIR probe (dsDNA)
DNA 1: GTGTTGACAGGCGCGCCTCAATGTTATATACTATACTTGTAAGATAAATAAAACAA
DNA 2: TTGTTTTATTTATCTTACAAGTATAGTATATAACATTGAGGCGCGCCTGTCAACAC
Question: Does B5 bind [8]?
Answer: Result: no binding
